Source: US20240301085A1

Key:
[1] = molecular target: human GPC3, full length, on cells (human) (UniProt P51654); assay: FACS on CHO-K1 clone CHOK1-hGPC3.2B5
[2] = molecular target: Polypeptide GC3pep of human GPC3 (Ala524-Lys563) (human); assay: ELISA, coated GC3pep, antibody 1 nM
[3] = molecular target: murine GPC3-His protein (murine) (UniProt Q8CFZ4); assay: ELISA, coated murine GPC3-His, antibody 100 nM
[4] = molecular target: murine GPC3-His protein (murine) (UniProt Q8CFZ4); assay: ELISA, coated murine GPC3-His, antibody 0.01 nM
[5] = molecular target: monkey GPC3-His protein (monkey); assay: ELISA, coated monkey GPC3-His, antibody 0.01 nM
[6] = molecular target: monkey GPC3-His protein (monkey); assay: ELISA, coated monkey GPC3-His, antibody 10 nM
[7] = molecular target: Polypeptide GC3pep of human GPC3 (Ala524-Lys563) (human); assay: ELISA, coated GC3pep, antibody 100 nM
[8] = molecular target: human GPC3, full length, on cells (human) (UniProt P51654); assay: FACS on CHO-K1 clone CHOK1-hGPC3.1C3
[9] = molecular target: human GPC3-His protein (human) (UniProt P51654); assay: ELISA, coated human GPC3-His, antibody 100 nM
[10] = molecular target: monkey GPC3-His protein (monkey); assay: ELISA, coated monkey GPC3-His, antibody 0.001 nM
[11] = molecular target: murine GPC3-His protein (murine) (UniProt Q8CFZ4); assay: ELISA, coated murine GPC3-His, antibody 100 nM; remark: listed apart in the source
[12] = molecular target: murine GPC3-His protein (murine) (UniProt Q8CFZ4); assay: ELISA, coated murine GPC3-His, antibody 0.0001 nM
[13] = molecular target: Polypeptide GC3pep of human GPC3 (Ala524-Lys563) (human); assay: ELISA, coated GC3pep, antibody 0.01 nM
[14] = molecular target: Polypeptide GC3pep of human GPC3 (Ala524-Lys563) (human); assay: ELISA, coated GC3pep, antibody 0.0001 nM
[15] = molecular target: monkey GPC3-His protein (monkey); assay: ELISA, coated monkey GPC3-His, antibody 0.1 nM
[16] = molecular target: murine GPC3-His protein (murine) (UniProt Q8CFZ4); assay: ELISA, coated murine GPC3-His, antibody 0.01 nM; remark: listed apart in the source
[17] = molecular target: human GPC3, full length, on cells (human) (UniProt P51654); assay: FACS on HepG2 cells
[18] = molecular target: monkey GPC3, full length, on HEK293T cells (monkey); assay: FACS on HEK293T-monkey GPC3 cells
[19] = molecular target: murine GPC3-His protein (murine) (UniProt Q8CFZ4); assay: ELISA, coated murine GPC3-His, antibody 0.0001 nM; remark: listed apart in the source
[20] = molecular target: monkey GPC3-His protein (monkey); assay: ELISA, coated monkey GPC3-His, antibody 1 nM
[21] = molecular target: monkey GPC3-His protein (monkey); assay: ELISA, coated monkey GPC3-His, antibody 0.0001 nM
[22] = molecular target: Polypeptide GC3pep of human GPC3 (Ala524-Lys563) (human); assay: ELISA, coated GC3pep, antibody 0.1 nM
[23] = molecular target: human GPC3-His protein (human) (UniProt P51654); assay: ELISA, coated human GPC3-His, antibody 10 nM
[24] = molecular target: murine GPC3-His protein (murine) (UniProt Q8CFZ4); assay: ELISA, coated murine GPC3-His, antibody 10 nM
[25] = molecular target: human GPC3, full length, on cells (human) (UniProt P51654); assay: FACS on CHO-K1 clone CHOK1-hGPC3.3E9
[26] = molecular target: human GPC3-His protein (human) (UniProt P51654); assay: ELISA, coated human GPC3-His, antibody 0.01 nM
[27] = molecular target: human GPC3, full length, on cells (human) (UniProt P51654); assay: FACS on HepG2 cells, control in the row of T2-23
[28] = molecular target: human GPC3-His protein (human) (UniProt P51654); assay: ELISA, coated human GPC3-His, antibody 0.01 nM; remark: listed apart in the source
[29] = molecular target: human GPC3-His protein (human) (UniProt P51654); assay: ELISA, coated human GPC3-His, antibody 1 nM
[30] = molecular target: human GPC3-His protein (human) (UniProt P51654); assay: ELISA, coated human GPC3-His, antibody 0.0001 nM
[31] = molecular target: human GPC3, full length, on cells (human) (UniProt P51654); assay: FACS on CHO-K1-human GPC3 cells
[32] = molecular target: Polypeptide GC3pep of human GPC3 (Ala524-Lys563) (human); assay: ELISA, coated GC3pep, antibody 100 nM; remark: listed apart in the source
[33] = molecular target: monkey GPC3-His protein (monkey); assay: ELISA, coated monkey GPC3-His, antibody 1 nM; remark: listed apart in the source
[34] = molecular target: monkey GPC3-His protein (monkey); assay: ELISA, coated monkey GPC3-His, antibody 0.001 nM; remark: listed apart in the source
[35] = molecular target: monkey GPC3-His protein (monkey); assay: ELISA, coated monkey GPC3-His, antibody 100 nM
[36] = molecular target: human GPC3-His protein (human) (UniProt P51654); assay: ELISA, coated human GPC3-His, antibody 10 nM; remark: listed apart in the source
[37] = molecular target: monkey GPC3-His protein (monkey); assay: ELISA, coated monkey GPC3-His, antibody 10 nM; remark: listed apart in the source
[38] = molecular target: murine GPC3-His protein (murine) (UniProt Q8CFZ4); assay: ELISA, coated murine GPC3-His, antibody 0.1 nM
[39] = molecular target: Polypeptide GC3pep of human GPC3 (Ala524-Lys563) (human); assay: ELISA, coated GC3pep, antibody 0.001 nM
[40] = molecular target: human GPC3-His protein (human) (UniProt P51654); assay: ELISA, coated human GPC3-His, antibody 100 nM; remark: listed apart in the source
[41] = molecular target: human GPC3-His protein (human) (UniProt P51654); assay: ELISA, coated human GPC3-His, antibody 0.0001 nM; remark: listed apart in the source
[42] = molecular target: murine GPC3-His protein (murine) (UniProt Q8CFZ4); assay: ELISA, coated murine GPC3-His, antibody 0.001 nM
[43] = molecular target: human GPC3-His protein (human) (UniProt P51654); assay: ELISA, coated human GPC3-His, antibody 0.001 nM
[44] = molecular target: human GPC3-His protein (human) (UniProt P51654); assay: ELISA, coated human GPC3-His, antibody 0.1 nM
[45] = molecular target: murine GPC3-His protein (murine) (UniProt Q8CFZ4); assay: ELISA, coated murine GPC3-His, antibody 10 nM; remark: listed apart in the source
[46] = molecular target: human GPC3-His protein (human) (UniProt P51654); assay: ELISA, coated human GPC3-His, antibody 0.1 nM; remark: listed apart in the source
[47] = molecular target: monkey GPC3-His protein (monkey); assay: ELISA, coated monkey GPC3-His, antibody 100 nM; remark: listed apart in the source
[48] = molecular target: monkey GPC3-His protein (monkey); assay: ELISA, coated monkey GPC3-His, antibody 0.0001 nM; remark: listed apart in the source
[49] = molecular target: monkey GPC3-His protein (monkey); assay: ELISA, coated monkey GPC3-His, antibody 0.01 nM; remark: listed apart in the source
[50] = molecular target: human GPC3, full length, on cells (human) (UniProt P51654); assay: FACS on HepG2 cells, control in the row of Y035
[51] = molecular target: murine GPC3-His protein (murine) (UniProt Q8CFZ4); assay: ELISA, coated murine GPC3-His, antibody 0.001 nM; remark: listed apart in the source
[52] = molecular target: human GPC3-His protein (human) (UniProt P51654); assay: ELISA, coated human GPC3-His, antibody 1 nM; remark: listed apart in the source
[53] = molecular target: Polypeptide GC3pep of human GPC3 (Ala524-Lys563) (human); assay: ELISA, coated GC3pep, antibody 10 nM
[54] = molecular target: human GPC3-His protein (human) (UniProt P51654); assay: ELISA, coated human GPC3-His, antibody 0.001 nM; remark: listed apart in the source
[55] = molecular target: murine GPC3-His protein (murine) (UniProt Q8CFZ4); assay: ELISA, coated murine GPC3-His, antibody 1 nM
[56] = molecular target: monkey GPC3-His protein (monkey); assay: ELISA, coated monkey GPC3-His, antibody 0.1 nM; remark: listed apart in the source

Chain of UniProt Q8CFZ4 (Q8CFZ4 25-558 limits assumed): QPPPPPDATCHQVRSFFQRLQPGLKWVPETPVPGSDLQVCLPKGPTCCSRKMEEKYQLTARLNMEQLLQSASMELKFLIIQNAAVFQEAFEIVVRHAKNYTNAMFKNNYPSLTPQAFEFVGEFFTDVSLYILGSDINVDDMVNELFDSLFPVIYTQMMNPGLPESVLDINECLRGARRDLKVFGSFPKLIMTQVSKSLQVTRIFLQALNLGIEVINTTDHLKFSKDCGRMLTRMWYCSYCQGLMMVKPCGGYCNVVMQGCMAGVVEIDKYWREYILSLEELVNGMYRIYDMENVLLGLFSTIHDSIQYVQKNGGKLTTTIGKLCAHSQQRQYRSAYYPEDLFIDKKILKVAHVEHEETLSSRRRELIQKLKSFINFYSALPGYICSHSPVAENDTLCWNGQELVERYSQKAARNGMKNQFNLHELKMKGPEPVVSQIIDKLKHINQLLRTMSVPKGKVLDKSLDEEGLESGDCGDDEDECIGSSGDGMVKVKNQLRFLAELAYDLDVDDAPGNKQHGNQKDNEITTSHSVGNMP
Chain of Polypeptide GC3pep of human GPC3 (Ala524-Lys563) (human) (peptide, as listed by the source): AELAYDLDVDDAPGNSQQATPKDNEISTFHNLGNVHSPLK

## human IgG1 subtype control (antibody)
[1]
  Mean fluorescence intensity of cells: 19.3
[2]
  OD450: 0.04
[3]
  OD450: 0.105
[4]
  OD450: 0.052
[5]
  OD450: 0.05
[6]
  OD450: 0.047
[7]
  OD450: 0.069
[8]
  Mean fluorescence intensity of cells: 19.3
[9]
  OD450: 0.072
[10]
  OD450: 0.04
[11]
  OD450: 0.08
[12]
  OD450: 0.049
[13]
  OD450: 0.046
[14]
  OD450: 0.06
[15]
  OD450: 0.04
[16]
  OD450: 0.05
[17]
  Max MFI: 110
[18]
  Max MFI: 95
[19]
  OD450: 0.05
[20]
  OD450: 0.044
[21]
  OD450: 0.048
[22]
  OD450: 0.04
[23]
  OD450: 0.05
[24]
  OD450: 0.07
[25]
  Mean fluorescence intensity of cells: 19.3
[26]
  OD450: 0.1
[27]
  Mean fluorescence intensity of cells: 137
[28]
  OD450: 0.048
[29]
  OD450: 0.09
[30]
  OD450: 0.047
[31]
  Max MFI: 82
[32]
  OD450: 0.06
[33]
  OD450: 0.05
[34]
  OD450: 0.044
[35]
  OD450: 0.19
[36]
  OD450: 0.1
[37]
  OD450: 0.08
[38]
  OD450: 0.05
[39]
  OD450: 0.046
[40]
  OD450: 0.09
[41]
  OD450: 0.09
[42]
  OD450: 0.05
[43]
  OD450: 0.09
[44]
  OD450: 0.09
[45]
  OD450: 0.055
[46]
  OD450: 0.05
[47]
  OD450: 0.056
[48]
  OD450: 0.05
[49]
  OD450: 0.044
[50]
  Mean fluorescence intensity of cells: 137
[51]
  OD450: 0.051
[52]
  OD450: 0.048
[53]
  OD450: 0.04
[54]
  OD450: 0.048
[55]
  OD450: 0.05
[56]
  OD450: 0.045
